Results published in publication PMC9649601, “The E262K mutation in Lamin A links nuclear proteostasis imbalance to laminopathy‐associated premature aging” (Aging Cell, 2022).

Target: the molecule itself
Experiment: dynamic light scattering + other: atomic force microscopy; purified proteins at 0.1 and 10 uM in aqueous environment; ex situ AFM at 10 uM; self-association (oligomers or aggregates)

Row | Protein | binding result
1 | second rod domain of lamin A E262K (LMNA^E262K-rod2, residues 226-387) (domain or fragment, human, UniProt P02545 226-387, looked up, lamin A (LMNA), human, second rod domain, residues 226-387, with the patient's variant p.Glu262Lys; source: bacterially expressed recombinant, purified) LVEIDNGKQREFESRLADALQELRAQHEDQVEQYKKKLEKTYSAKLDNARQSAERNSNLVGAAHEELQQSRIRIDSLSAQLSQLQKQLAAKEAKLRDLEDSLARERDTSRRLLAEKEREMAEMRARMQQQLDEYQELLDIKLALDMEIHAYRKLLEGEEERL | binds
2 | second rod domain of lamin A (LMNA-rod2, residues 226-387) (domain or fragment, human, UniProt P02545 226-387, looked up, lamin A (LMNA), human, second rod domain, residues 226-387; source: bacterially expressed recombinant, purified) LVEIDNGKQREFESRLADALQELRAQHEDQVEQYKKELEKTYSAKLDNARQSAERNSNLVGAAHEELQQSRIRIDSLSAQLSQLQKQLAAKEAKLRDLEDSLARERDTSRRLLAEKEREMAEMRARMQQQLDEYQELLDIKLALDMEIHAYRKLLEGEEERL | binds
